Where no end group is shown, it is not given here.
Target: purified human fibrinogen (human) (UniProt P02671)
Experiment: cell-based or functional assay

Sequence of purified human fibrinogen (human) (P02671 20-629 limits assumed, chain 1 of 3): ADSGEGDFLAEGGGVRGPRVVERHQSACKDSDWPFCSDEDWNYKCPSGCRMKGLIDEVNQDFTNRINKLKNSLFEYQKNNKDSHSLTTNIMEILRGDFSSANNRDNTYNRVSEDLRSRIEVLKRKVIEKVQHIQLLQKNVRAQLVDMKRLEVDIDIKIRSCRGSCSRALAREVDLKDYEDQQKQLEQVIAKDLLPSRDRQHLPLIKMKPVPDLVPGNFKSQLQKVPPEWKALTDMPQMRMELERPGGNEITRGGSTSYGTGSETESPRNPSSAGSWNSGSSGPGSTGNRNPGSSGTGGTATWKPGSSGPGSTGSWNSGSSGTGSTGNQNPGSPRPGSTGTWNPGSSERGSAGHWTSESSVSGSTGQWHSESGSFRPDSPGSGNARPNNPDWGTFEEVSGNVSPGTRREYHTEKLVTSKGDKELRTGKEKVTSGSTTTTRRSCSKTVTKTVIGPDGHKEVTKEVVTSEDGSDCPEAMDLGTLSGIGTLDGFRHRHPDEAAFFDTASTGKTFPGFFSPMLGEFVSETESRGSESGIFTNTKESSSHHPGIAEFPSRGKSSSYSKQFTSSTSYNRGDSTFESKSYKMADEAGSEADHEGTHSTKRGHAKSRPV
Sequence of purified human fibrinogen (human) (P02675 31-491 limits assumed, chain 2 of 3, further chain): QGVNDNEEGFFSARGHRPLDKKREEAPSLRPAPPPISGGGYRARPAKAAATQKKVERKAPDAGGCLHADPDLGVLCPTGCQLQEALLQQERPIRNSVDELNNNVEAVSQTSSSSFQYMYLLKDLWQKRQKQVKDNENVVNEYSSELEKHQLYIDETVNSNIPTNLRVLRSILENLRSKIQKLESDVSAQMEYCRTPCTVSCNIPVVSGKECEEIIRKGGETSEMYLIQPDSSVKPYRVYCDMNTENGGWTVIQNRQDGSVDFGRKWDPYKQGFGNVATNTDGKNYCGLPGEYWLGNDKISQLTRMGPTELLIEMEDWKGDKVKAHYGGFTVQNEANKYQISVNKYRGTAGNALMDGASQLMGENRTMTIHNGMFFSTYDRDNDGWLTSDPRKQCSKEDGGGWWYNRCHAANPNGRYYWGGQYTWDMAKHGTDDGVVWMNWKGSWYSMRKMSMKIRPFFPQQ
Sequence of purified human fibrinogen (human) (P02679 other isoform, or with tags, fused parts or gaps limits assumed, chain 3 of 3, further chain): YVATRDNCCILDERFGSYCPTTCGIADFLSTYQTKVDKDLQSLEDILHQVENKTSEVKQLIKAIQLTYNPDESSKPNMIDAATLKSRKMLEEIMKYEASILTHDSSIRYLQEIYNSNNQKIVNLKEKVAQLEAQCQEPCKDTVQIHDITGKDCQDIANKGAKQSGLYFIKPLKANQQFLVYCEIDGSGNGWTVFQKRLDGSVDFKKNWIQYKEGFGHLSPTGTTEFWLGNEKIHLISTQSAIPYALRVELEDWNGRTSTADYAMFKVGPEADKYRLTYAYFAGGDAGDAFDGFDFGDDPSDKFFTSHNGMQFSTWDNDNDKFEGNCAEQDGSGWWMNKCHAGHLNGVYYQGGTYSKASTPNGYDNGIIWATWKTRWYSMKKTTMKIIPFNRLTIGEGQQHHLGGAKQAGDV

B1: Peptide dendrimer No. 13 (peptide, part only)
chain 1: GPRPG
chain 2: GHRPY
modifications: not fully specified (C-terminus); also: chimeric four-branch dendrimer: two copies of each chain, C-termini attached to a branched core of undefined make-up
**Q.** Which results are given for B1?
**A.** Clotting activity (seconds), non-irradiated control: 4.3 s; Clotting activity (seconds), storage for 2 weeks post irradiation: 9.4 s; Clotting activity (seconds), storage for 4 weeks post irradiation: 10 s

From patent US20160324977A1
